Values joined by “and” are separate entries in the source; they are usually repeats but may differ in a detail not shown here. Equal entries are not always repeated.
Columns and labels:
[1] = target: 全长SARS-CoV-2 S蛋白 (GenBank ID: QHD43416.1)，展示于HIV假病毒 (SARS-CoV-2, UniProt P0DTC2 14-1273); experiment: cell-based or functional assay
SARS-CoV-2真病毒的S蛋白 = SARS-CoV-2真病毒的S蛋白 (SARS-CoV-2, UniProt P0DTC2 14-1273); experiment: cell-based or functional assay

B1: 单克隆抗体4B7 (抗SARS-CoV-2全人源单克隆抗体) (antibody, V domains shown)
VH: EVQLVESGGGLVQPGGSLRLSCAASGFPFSSYAMSWVRQAPGKGLEWVSAITGSGGSTYYADSVKGRFTISRDNSKNTLYLHMNSLRAEDTAVYYCAKDDYGDYVLGAFDIWGQGTTVTVSS
VL: QSALTQPASVSGSPGQSITISCTGTSSDVGTYKFVSWYQQHPGKAPKLMIYEGSKRPSGVSNRFSGSKSGNTASLTISGLQAEDEADYYCCSYAGSSTLVFGGGTKLTVL
- 假病毒模型上EC50 (luciferase, ACE2-293T细胞) [1]: 0.052 ug/ml and 0.35 nM
- 病毒感染的细胞模型上EC50 (Vero E6细胞, 结晶紫染色细胞活率) (SARS-CoV-2真病毒的S蛋白): 0.38 ug/ml and 2.5 nM

Reference: patent CN111732655A (INST MILITARY MEDICINE ACADEMY MILITARY SCIENCES PLA, dated 2020)
